The target of this experiment is T1, BCMA-Fc antigen (UniProt Q02223 5-51, limits assumed).
T1 construct: Bought reagent; also called BCMA fc fusion protein; recombinant BCMA-Fc; not shown: Fc region
T1 chain (looked up): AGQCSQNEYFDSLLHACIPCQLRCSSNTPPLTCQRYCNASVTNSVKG
Nature of the experiment: flow cytometry of CAR-transduced JNL cells stained with BCMA-Fc antigen. The procedure: Jurkat-NFAT-luciferase (JNL) cells transduced with BCMA CAR constructs were evaluated for activation in response to BCMA-expressing target cell lines. Small-scale viral supernatant samples were generated in HEK293T cells for transduction of JNL cells. On Day 3 following transduction, BCMA CAR-transduced JNL cells were incubated with target cells at an effector-to-target (E:T) ratio of 6:1. Target cell lines were: K562-BCMA (engineered to stably express BCMA), K562 (parental line), and BCMA positive multiple myeloma cell lines, NCI-H929 and RPMI 8226. JNL activation was measured using Bright-Glo substrate (Promega) on Day 4. CAR expression on transduced JNL was assessed on Day 7 with BCMA-Fc antigen and Biotin-Protein L reagent (Table 7).

B1: BCMA-9 CAR (other)
chain: QVQLVESGGGLVKPGGSLRLSCAASGFTFSDYYMSWIRQAPGKGLEWVSYISSSGSTIYYADSVKGRFTISRDNAKNSLYLQMNSLRAEDTAVYYCARESGDGMDVWGQGTTVTVSSASGGGGSGGRASGGGGSDIQMTQSPSSLSASVGDRVTITCRASQSISSYLNWYQQKPGKAPKLLIYAASSLQSGVPSRFSGSGSGTDFTLTISSLQPEDFATYYCQQSYTLAFGQGTKVDIKTTTPAPRPPTPAPTIASQPLSLRPEACRPAAGGAVHTRGLDFACDIYIWAPLAGTCGVLLLSLVITLYCKRGRKKLLYIFKQPFMRPVQTTQEEDGCSCRFPEEEEGGCELRVKFSRSADAPAYKQGQNQLYNELNLGRREEYDVLDKRRGRDPEMGGKPRRKNPQEGLYNELQKDKMAEAYSEIGMKGERRRGKGHDGLYQGLSTATKDTYDALHMQALPPR
notes: also called 139108 Full CAR; OG62-93QB
For B1, the “% CAR+ (BCMA-Fc detection)” value was 54.7%.

B2: BCMA-12 CAR (other)
chain: EVQLLESGGGLVQPGGSLRLSCAVSGFALSNHGMSWVRRAPGKGLEWVSGIVYSGSTYYAASVKGRFTISRDNSRNTLYLQMNSLRPEDTAIYYCSAHGGESDVWGQGTTVTVSSASGGGGSGGRASGGGGSDIVMTQTPLSLSVTPGQPASISCKSSQSLLRNDGKTPLYWYLQKAGQPPQLLIYEVSNRFSGVPDRFSGSGSGTDFTLKISRVEAEDVGAYYCMQNIQFPSFGGGTKLEIKTTTPAPRPPTPAPTIASQPLSLRPEACRPAAGGAVHTRGLDFACDIYIWAPLAGTCGVLLLSLVITLYCKRGRKKLLYIFKQPFMRPVQTTQEEDGCSCRFPEEEEGGCELRVKFSRSADAPAYKQGQNQLYNELNLGRREEYDVLDKRRGRDPEMGGKPRRKNPQEGLYNELQKDKMAEAYSEIGMKGERRRGKGHDGLYQGLSTATKDTYDALHMQALPPR
notes: also called 139111 Full CAR; HU13-58ZB
Consider B2, for which the “% CAR+ (BCMA-Fc detection)” value was 23.4%.

B3: BCMA-4 CAR (other)
chain: QVQLVESGGGLVQPGRSLRLSCAASGFTFSNYAMSWVRQAPGKGLGWVSGISRSGENTYYADSVKGRFTISRDNSKNTLYLQMNSLRDEDTAVYYCARSPAHYYGGMDVWGQGTTVTVSSASGGGGSGGRASGGGGSDIVLTQSPGTLSLSPGERATLSCRASQSISSSFLAWYQQKPGQAPRLLIYGASRRATGIPDRFSGSGSGTDFTLTISRLEPEDSAVYYCQQYHSSPSWTFGQGTKLEIKTTTPAPRPPTPAPTIASQPLSLRPEACRPAAGGAVHTRGLDFACDIYIWAPLAGTCGVLLLSLVITLYCKRGRKKLLYIFKQPFMRPVQTTQEEDGCSCRFPEEEEGGCELRVKFSRSADAPAYKQGQNQLYNELNLGRREEYDVLDKRRGRDPEMGGKPRRKNPQEGLYNELQKDKMAEAYSEIGMKGERRRGKGHDGLYQGLSTATKDTYDALHMQALPPR
notes: also called 139103 Full CAR; JF32-78IB
For B3, the “% CAR+ (BCMA-Fc detection)” value turned out to be 49.5%.

B4: BCMA-7 CAR (other)
chain: EVQLVETGGGLVQPGGSLRLSCAVSGFALSNHGMSWVRRAPGKGLEWVSGIVYSGSTYYAASVKGRFTISRDNSRNTLYLQMNSLRPEDTAIYYCSAHGGESDVWGQGTTVTVSSASGGGGSGGRASGGGGSEIVMTQSPATLSVSPGERATLSCRASQSVSSKLAWYQQKPGQAPRLLMYGASIRATGIPDRFSGSGSGTEFTLTISSLEPEDFAVYYCQQYGSSSWTFGQGTKVEIKTTTPAPRPPTPAPTIASQPLSLRPEACRPAAGGAVHTRGLDFACDIYIWAPLAGTCGVLLLSLVITLYCKRGRKKLLYIFKQPFMRPVQTTQEEDGCSCRFPEEEEGGCELRVKFSRSADAPAYKQGQNQLYNELNLGRREEYDVLDKRRGRDPEMGGKPRRKNPQEGLYNELQKDKMAEAYSEIGMKGERRRGKGHDGLYQGLSTATKDTYDALHMQALPPR
notes: also called 139106 Full CAR; QR91-12ZA
Consider B4, for which the “% CAR+ (BCMA-Fc detection)” value was found to be 30.4%.

B5: BCMA-2 CAR (other)
chain: QVQLQESGGGLVQPGGSLRLSCAASGFTFSSDAMTWVRQAPGKGLEWVSVISGSGGTTYYADSVKGRFTISRDNSKNTLYLQMNSLRAEDTAVYYCAKLDSSGYYYARGPRYWGQGTLVTVSSASGGGGSGGRASGGGGSDIQLTQSPSSLSASVGDRVTITCRASQSISSYLNWYQQKPGKAPKLLIYGASTLASGVPARFSGSGSGTHFTLTINSLQSEDSATYYCQQSYKRASFGQGTKVEIKTTTPAPRPPTPAPTIASQPLSLRPEACRPAAGGAVHTRGLDFACDIYIWAPLAGTCGVLLLSLVITLYCKRGRKKLLYIFKQPFMRPVQTTQEEDGCSCRFPEEEEGGCELRVKFSRSADAPAYKQGQNQLYNELNLGRREEYDVLDKRRGRDPEMGGKPRRKNPQEGLYNELQKDKMAEAYSEIGMKGERRRGKGHDGLYQGLSTATKDTYDALHMQALPPR
notes: also called 139101 Full CAR; UR96-08PA
On to B5, for which the “% CAR+ (BCMA-Fc detection)” value is 32%.

B6: BCMA-14 CAR (other)
chain: EVQLVETGGGLVQPGGSLRLSCAVSGFALSNHGMSWVRRAPGKGLEWVSGIVYSGSTYYAASVKGRFTISRDNSRNTLYLQMNSLRPEDTAIYYCSAHGGESDVWGQGTTVTVSSASGGGGSGGRASGGGGSETTLTQSPATLSVSPGERATLSCRASQSVGSNLAWYQQKPGQGPRLLIYGASTRATGIPARFSGSGSGTEFTLTISSLQPEDFAVYYCQQYNDWLPVTFGQGTKVEIKTTTPAPRPPTPAPTIASQPLSLRPEACRPAAGGAVHTRGLDFACDIYIWAPLAGTCGVLLLSLVITLYCKRGRKKLLYIFKQPFMRPVQTTQEEDGCSCRFPEEEEGGCELRVKFSRSADAPAYKQGQNQLYNELNLGRREEYDVLDKRRGRDPEMGGKPRRKNPQEGLYNELQKDKMAEAYSEIGMKGERRRGKGHDGLYQGLSTATKDTYDALHMQALPPR
notes: also called 139113 Full CAR; HJ64-62PB
On to B6, for which the “% CAR+ (BCMA-Fc detection)” value stood at 31.8%.

B7: BCMA-3 CAR (other)
chain: QVQLVQSGAEVKKPGASVKVSCKASGYTFSNYGITWVRQAPGQGLEWMGWISAYNGNTNYAQKFQGRVTMTRNTSISTAYMELSSLRSEDTAVYYCARGPYYYYMDVWGKGTMVTVSSASGGGGSGGRASGGGGSEIVMTQSPLSLPVTPGEPASISCRSSQSLLYSNGYNYVDWYLQKPGQSPQLLIYLGSNRASGVPDRFSGSGSGTDFKLQISRVEAEDVGIYYCMQGRQFPYSFGQGTKVEIKTTTPAPRPPTPAPTIASQPLSLRPEACRPAAGGAVHTRGLDFACDIYIWAPLAGTCGVLLLSLVITLYCKRGRKKLLYIFKQPFMRPVQTTQEEDGCSCRFPEEEEGGCELRVKFSRSADAPAYKQGQNQLYNELNLGRREEYDVLDKRRGRDPEMGGKPRRKNPQEGLYNELQKDKMAEAYSEIGMKGERRRGKGHDGLYQGLSTATKDTYDALHMQALPPR
notes: Chimeric antigen receptor; 0.0 % CAR+ on JNL cells by BCMA-Fc detection; also called 139102 Full CAR; KR98-03KA
Regarding B7, the “% CAR+ (BCMA-Fc detection)” value was determined as 0%.

B8: BCMA-13 CAR (other)
chain: QVQLVESGGGLVQPGGSLRLSCAVSGFALSNHGMSWVRRAPGKGLEWVSGIVYSGSTYYAASVKGRFTISRDNSRNTLYLQMNSLRPEDTAIYYCSAHGGESDVWGQGTTVTVSSASGGGGSGGRASGGGGSDIRLTQSPSPLSASVGDRVTITCQASEDINKFLNWYHQTPGKAPKLLIYDASTLQTGVPSRFSGSGSGTDFTLTINSLQPEDIGTYYCQQYESLPLTFGGGTKVEIKTTTPAPRPPTPAPTIASQPLSLRPEACRPAAGGAVHTRGLDFACDIYIWAPLAGTCGVLLLSLVITLYCKRGRKKLLYIFKQPFMRPVQTTQEEDGCSCRFPEEEEGGCELRVKFSRSADAPAYKQGQNQLYNELNLGRREEYDVLDKRRGRDPEMGGKPRRKNPQEGLYNELQKDKMAEAYSEIGMKGERRRGKGHDGLYQGLSTATKDTYDALHMQALPPR
notes: also called 139112 Full CAR; KG66-98AB
Regarding B8, the “% CAR+ (BCMA-Fc detection)” value worked out at 32.7%.

B9: BCMA-5 CAR (other)
chain: EVQLLETGGGLVQPGGSLRLSCAVSGFALSNHGMSWVRRAPGKGLEWVSGIVYSGSTYYAASVKGRFTISRDNSRNTLYLQMNSLRPEDTAIYYCSAHGGESDVWGQGTTVTVSSASGGGGSGGRASGGGGSEIVLTQSPATLSVSPGESATLSCRASQSVSSNLAWYQQKPGQAPRLLIYGASTRASGIPDRFSGSGSGTDFTLTISSLQAEDVAVYYCQQYGSSLTFGGGTKVEIKTTTPAPRPPTPAPTIASQPLSLRPEACRPAAGGAVHTRGLDFACDIYIWAPLAGTCGVLLLSLVITLYCKRGRKKLLYIFKQPFMRPVQTTQEEDGCSCRFPEEEEGGCELRVKFSRSADAPAYKQGQNQLYNELNLGRREEYDVLDKRRGRDPEMGGKPRRKNPQEGLYNELQKDKMAEAYSEIGMKGERRRGKGHDGLYQGLSTATKDTYDALHMQALPPR
notes: also called 139104 Full CAR; AR99-08FA
On to B9, for which the “% CAR+ (BCMA-Fc detection)” value was 28.9%.

B10: BCMA-11 CAR (other)
chain: QVQLVQSGGGLVKPGGSLRLSCAASGFTFSDYYMSWIRQAPGKGLEWVSYISSSGNTIYYADSVKGRFTISRDNAKNSLYLQMNSLRAEDTAVYYCARSTMVREDYWGQGTLVTVSSASGGGGSGGRASGGGGSDIVLTQSPLSLPVTLGQPASISCKSSESLVHNSGKTYLNWFHQRPGQSPRRLIYEVSNRDSGVPDRFTGSGSGTDFTLKISRVEAEDVGVYYCMQGTHWPGTFGQGTKLEIKTTTPAPRPPTPAPTIASQPLSLRPEACRPAAGGAVHTRGLDFACDIYIWAPLAGTCGVLLLSLVITLYCKRGRKKLLYIFKQPFMRPVQTTQEEDGCSCRFPEEEEGGCELRVKFSRSADAPAYKQGQNQLYNELNLGRREEYDVLDKRRGRDPEMGGKPRRKNPQEGLYNELQKDKMAEAYSEIGMKGERRRGKGHDGLYQGLSTATKDTYDALHMQALPPR
notes: also called 139110 Full CAR; UG65-93FB
Consider B10, for which the “% CAR+ (BCMA-Fc detection)” value is 42.7%.

B11: BCMA-1 CAR (other)
chain: QVQLVQSGAEVRKTGASVKVSCKASGYIFDNFGINWVRQAPGQGLEWMGWINPKNNNTNYAQKFQGRVTITADESTNTAYMEVSSLRSEDTAVYYCARGPYYYQSYMDVWGQGTMVTVSSASGGGGSGGRASGGGGSDIVMTQTPLSLPVTPGEPASISCRSSQSLLHSNGYNYLNWYLQKPGQSPQLLIYLGSKRASGVPDRFSGSGSGTDFTLHITRVGAEDVGVYYCMQALQTPYTFGQGTKLEIKTTTPAPRPPTPAPTIASQPLSLRPEACRPAAGGAVHTRGLDFACDIYIWAPLAGTCGVLLLSLVITLYCKRGRKKLLYIFKQPFMRPVQTTQEEDGCSCRFPEEEEGGCELRVKFSRSADAPAYKQGQNQLYNELNLGRREEYDVLDKRRGRDPEMGGKPRRKNPQEGLYNELQKDKMAEAYSEIGMKGERRRGKGHDGLYQGLSTATKDTYDALHMQALPPR
notes: also called 139100 Full CAR; ER95-03VA
As to B11, the “% CAR+ (BCMA-Fc detection)” value came to 72.1%.
